Results from the nanobody polyreactivity screen of Harvey et al. (2022).

Assay: yeast display, Sf9 membrane polyspecificity reagent, FACS + sequencing; frameworks hold sequencing errors
Outline: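 Nanobodies from a synthetic yeast display library (Saccharomyces cerevisiae BJ5465), induced 36–48 hours with galactose, were stained 1 hour at 4 °C with 10% biotinylated, detergent-solubilized Sf9 membrane reagent, enriched on streptavidin microbeads, then FACS-sorted. Anti-HA (expression) and streptavidin (reagent binding) fluorescence set low and high (top ~1%) gates. Polyreactivity labels come from the gate of origin. Genes were colony-PCR amplified, MiSeq 2 × 250 sequenced and filtered by CDR length.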

QVQLGESGGGLVQAGGSLSLSCAASGNTFVSNAMGWYRQATGKERELVATISSGAHTYYADSVKGRFTISRDNAKNTVYLQMKSLKPEDTAVYYCASTSYGYWVGYIPEVDFWGQGTQVSVSS
polyreactivity (PSR sort gate): low polyreactivity

QVQLGESGGGLVQSGGSLRLSCAASGSIFDWYDKGWYRQAPGKERELVATITRDGSTNYADSVKGRFTISRDNAKNTVYLQMNSLKPEDTAVYYCAAESRRFWYGLFGNEYGYWGQGTQVTVSS
polyreactivity (PSR sort gate): low polyreactivity

QVQLGESGLGLVQAGGSLRLSCAAYGSIFYIYAMGWYRQAPGKERELVAAISRSGGRTYYADSVKGRFTISRDNAKNTVYLQMNSLKPEYTAVYYCAARDHYSNGGMNYWGQGTQVTVSS
polyreactivity (PSR sort gate): high polyreactivity

QVQLGESRGGLVQAGGSLRLSCAASGTFAYKTIGWYRQAPGKEREWVAAITSSGGSTYYADSVKGRFTISRDNAKNTVYVLMNSLKPEDTAVYYCDKGSTWYYRKYDYWGQGTQVTVSS
polyreactivity (PSR sort gate): high polyreactivity

QVQLHESAGGLVQAGGSLRLRCSASGYISCDASRGWYRQAPGKERELAASITKGSSTNYADSVKGRFTIRDNAKNTVYLQMNRLKPEDTAVCYCAVTYPYWGDYTYWGQGTQVTVSS
polyreactivity (PSR sort gate): low polyreactivity

QVQLHESGGGLVQAGGSLRLICAASGSISILQSMGWYRQAPGKERELVAGINWGATTYYADRVKGRLTTSRDYAKNTVYLQMNSLKPEATAVYYCAVPTYYTNPLLYWGQGTQVTVSS
polyreactivity (PSR sort gate): low polyreactivity

QVQLIESGGGLDQAGGSLRLSCAASGFIFWEYAMGWYRQAPGKERELVAGISTSGGSTYYADSVKGLFTISRDNAKNTVYLQMNSLKPEDTAVYYCAVEGWDDTYFRQDMDYWGQGTQVTVSS
polyreactivity (PSR sort gate): low polyreactivity

QVQLIESGGGLVQAGGSLRLSCAASGIIFYDYAMGWYRPAPGKERELVATITSGGSTNYADSVKGRFTISRDNAKNTVYLQMNSLKPEDTAVYYCAAGRGLILGGVYGYDYWGQGTQVTVSS
polyreactivity (PSR sort gate): low polyreactivity

QVQLIESGGGLVQAGGSLRLSCAASGRTFGRYTMGWYRQAPGKERELVADISGTGGRTYYSDSVKGRFTISRDNAKNTVYLQMNSLKPEDTAVYYCNAVLHRRFDYWGQGTQVTVSS
polyreactivity (PSR sort gate): high polyreactivity

QVQLKESGGGQVQAGGSLRLCCAASGKIIPDAGMGWYRQAPGKEREFVAGISRGANTYYADSVKGRFTISRDNAKNTLYLHMYSLKPEDTAVFYCAVNVPWTYQYGYWGQGTQVTVSS
polyreactivity (PSR sort gate): high polyreactivity

QVQLLDSGGGLVQAGGSLRLSCAASGSIFGRNAMVWYRQAPGKEREFVATITSRGGRTYYADSVKGRFTISRDNAKNTVYLQMNSLKPEDTAVYYCAADTYISTLKKYRLGDYWGQGTQVTVSS
polyreactivity (PSR sort gate): low polyreactivity

QVQLLESGAGLVHAGGSLRISCAASGRTFGLNAMAWNPPAHGKETELVAAISSSGGSTYYADSVKGRFTISRDNPKNTVYLQMNSLTPEDTAVYYCAKVLNRYGTAYYYWGQGTQVTVSS
polyreactivity (PSR sort gate): high polyreactivity

QVQLLESGAGLVQAGGSLRLSCAAYGSTSYDYAMGWYRQAPGKERELVAAISGSSSTTYYADSVKGRFTISRDNAKNTVYLQMNSLKPEDTAVYYCNAVTTSGYGYGYWGQGTQVTVSS
polyreactivity (PSR sort gate): low polyreactivity

QVQLLESGAGLVQAGGSLRLSSAASGSIFNLNAMAWYRQAPGKERELVAGIRWSGGRTYYADSVKGRFTISRDNAKNTVYLQMNSLKPVDNEVYYCTAVGYLSWWYDYEYWGQGTQVTVST
polyreactivity (PSR sort gate): high polyreactivity

QVQLLESGGGIVQAGGSLRLSCDSSGSTFGTNAMGWYRQAPGKERELVAVITFSGGSTYYADSVKGRFTISRDNAKNTVYLQMNSLKPEDTAVYYCAKDGFITFVYDHDYWGQGTQVTVSS
polyreactivity (PSR sort gate): low polyreactivity

QVQLLESGGGKVQAVGSLRLSCAASGSIDDWYAMGWYRQAPGKERELLAAINEGGGSTYYADSVKGRFTISRDNAKNTVYFQMNILKPEDTAFYYCNAELSFRYPVFRELDYWGQGSQVTVSS
polyreactivity (PSR sort gate): low polyreactivity

QVQLLESGGGLDQAGGSLRISCPASGSIFWSNAMGWYRQAPGKEREFVAALTWSGDNTYFADSVKGRFTISRENAKNTVDLQMNSLKPEDTAVYYCAAVFQNKAVGGVTSIYDCRGQGTQVTVSS
polyreactivity (PSR sort gate): low polyreactivity

QVQLLESGGGLVHAGGSLRLSCAASGSIFPYYAMGWYRQAPGKERELVAAISDSGDSTYYADSVKGRFTISRDNAKNTVYLQMNSLKPEDTAVYYCNADSRTDYHPHGTMVGPDREYWGQGTQVTVSS
polyreactivity (PSR sort gate): low polyreactivity

QVQLLESGGGLVKAGGSLRLSCAPYGSIFYGYAMGWYRPAPGKERELVAAITRSGGSTYYADSVKGRFTITRFNAKNTVYLQMNSLKPEDTAVYYCAAGWRSVSVRYYGPSDYWGQGTQVTVSS
polyreactivity (PSR sort gate): low polyreactivity

QVQLLESGGGLVLAGGSLRLSCAASGFIIRPYAIGWYRQAPGKERELVAAITYSSGSTYYADSVKGRFTISRDNAKYTVYLEMNSLKPEDTAVYYCNAEFWYETLYEYDYWGQGTQLTVSS
polyreactivity (PSR sort gate): high polyreactivity

QVQLLESGGGLVPAGGSLRLSCAASGYIFHRYAMGWSRQAPGKERELVAAITWTGARTYYADSVKGRFTISRDNAKNTVYLQMNSLKPEDTAVYYAGPASYSFAKSGYWGQGTQVTVSS
polyreactivity (PSR sort gate): high polyreactivity

QVQLLESGGGLVQAGGSHRLSCAASGRIFGSNAMGWYRQAPGKERELVAAITRGGSTNYADSVKGRFTISLDNAKNTVYLQMNSLKPEDTAVYYCAVRWYRKYNYWGQGTQVTVSS
polyreactivity (PSR sort gate): high polyreactivity

QVQLLESGGGLVQAGGSLRITCAASGFTFAVYAMGWYRQAPGKERELVAAISRSGTRTYYADSVKGRFTISRDNAKNTVYLLMNSLKPEDTAVYYCAADKYRHGYDYWGQGTQVTVSS
polyreactivity (PSR sort gate): low polyreactivity

QVQLLESGGGLVQAGGSLRLRCAASGSIFISYAMGWYRQAPGKERELVAAISIRGTRTYYADSVKGRFTISRDNAKNTVYLHMNCLKPEDTAVYYCAADASYTEGMDYWGQGTQGTVSS
polyreactivity (PSR sort gate): high polyreactivity

QVQLLESGGGLVQAGGSLRLSCAAAGIIFGYYTMGWYRQAPGNERELVAAITTTGGSTYYADSVKGRCTISRDNAKNTVYLQMNSLKPEDTAVYYCAARKWSHRTISDYWGQGTQVTVSS
polyreactivity (PSR sort gate): high polyreactivity

QVQLLESGGGLVQAGGSLRLSCAASGAIFFIYVMGWYRQAPGKERELVAAISGSGGPTYYADSVKVRFTISRDNAKNTVFLQMNRLKPEDTAVYYCAARGYRGRMGYWGQGTQVTVSS
polyreactivity (PSR sort gate): low polyreactivity

QVQLLESGGGLVQAGGSLRLSCAASGFNFYYYAMGWYRQAPGKERELVAAISKSGGSTHYADSVKGRFTISRDNAKHTVYLQMNSLKPEDTAVYYCAARYILSKYGSGVRYNYWGQGTQVTVSS
polyreactivity (PSR sort gate): high polyreactivity

QVQLLESGGGLVQAGGSLRLSCAASGFTFLQYAMGWYRQAPGKERELVAAISWSGSRTYYADSVKGRFTISRDNAKNTVYLQMNSLKPEETAVYYCAAVYGGLTLTRNYYWGQGTQVTVSS
polyreactivity (PSR sort gate): high polyreactivity

QVQLLESGGGLVQAGGSLRLSCAASGFTFYLYTMGWYRQATGKERELVAAISRSGDRTYYADSVKGRFTISRDNAKNNVYLQMNSLKPEDTAVYYCAARSYRPTRGDYWGQGTQVTVST
polyreactivity (PSR sort gate): high polyreactivity

QVQLLESGGGLVQAGGSLRLSCAASGLTYYYAMGWYRQAPGKERELVAAISYSGGRTNYADSVKGRFTISRDNAKNTVYLQMNSLKPEDTAVYFCAAVGPRTDYSGYRYYYWVQGTQVTVSS
polyreactivity (PSR sort gate): high polyreactivity

QVQLLESGGGLVQAGGSLRLSCAASGRIFDYYAMGWYRQAPGKERELVAAISDSGDSTYYADSVKGRFTISRDNAKNTVYLQMNRLKPVDTAVYYCAAQGGWIPAQDVRSSWGYNYWGQGTQVSVSS
polyreactivity (PSR sort gate): high polyreactivity

QVQLLESGGGLVQAGGSLRLSCAASGRIFGVNAMGWYRQAPGKERELVAAISAGGGNTYYADSVKGRFTISRDNAKNSVYLQMNSLKPEDTAVYYCNVQRSLRMDYWGQGTQVTVSS
polyreactivity (PSR sort gate): high polyreactivity
